Patent US20090215666A1 (ONCOTHERAPY SCIENCE, published 2009)

Molecular target: T1, HA-tagged PPP3CA (calcineurin A subunit, PP2B) (UniProt Q08209 1-521, limits assumed)
T1 construct: Exogenously expressed in COS7 cells and immunoprecipitated with anti-HA antibody; not shown: HA tag
Experiment: co-immunoprecipitation from co-transfected COS7 cells (anti-HA IP, anti-Flag blot)

B1: Flag-tagged ΔPDIIIT-C1958 (other, not shown: small tags and cut ends)
chain: MGLKMSCLKGFQMCVSSSSSSHDEAPVLNDKHLDVPPTPTGMMLPRDLGSTVWLDETGSCPDDGEIDPEA
notes: also called ΔPDIIIT mutant
Question: Does B1 bind?
Answer: no binding
